Reference: US20250034266A1

Columns and labels:
[1] = molecular target: human CCR8 (human) (UniProt P51685); experiment: FACS on HEK293-human CCR8 cells
[2] = molecular target: human CCR8 (human) (UniProt P51685); experiment: FACS on HEK293-human CCR8 cells; remark: listed apart in the source
[3] = molecular target: human CCR8 (human) (UniProt P51685); experiment: FACS on HEK293-human CCR8 cells; remark: listed apart in the source
[4] = molecular target: human CCR8 (human) (UniProt P51685); experiment: FACS on HEK293-human CCR8 cells; remark: listed apart in the source
[5] = molecular target: T1, human CCR1 (human) (UniProt P32246); experiment: FACS on ExpiCHO-S-human CCR1 cells
T1 sequence (looked up): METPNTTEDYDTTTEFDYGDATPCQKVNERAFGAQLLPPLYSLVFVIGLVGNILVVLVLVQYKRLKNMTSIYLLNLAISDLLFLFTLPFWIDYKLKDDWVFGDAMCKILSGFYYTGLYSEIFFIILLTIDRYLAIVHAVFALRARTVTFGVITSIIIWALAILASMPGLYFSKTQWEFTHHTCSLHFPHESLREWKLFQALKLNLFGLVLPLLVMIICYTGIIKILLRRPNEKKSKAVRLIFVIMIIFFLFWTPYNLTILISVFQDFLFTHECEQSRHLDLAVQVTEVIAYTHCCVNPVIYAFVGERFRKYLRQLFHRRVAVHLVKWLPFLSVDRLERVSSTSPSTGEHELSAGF

[6] = molecular target: T2, human CCR4 (human) (UniProt P51679); experiment: FACS on ExpiCHO-S-human CCR4 cells
T2 sequence (looked up): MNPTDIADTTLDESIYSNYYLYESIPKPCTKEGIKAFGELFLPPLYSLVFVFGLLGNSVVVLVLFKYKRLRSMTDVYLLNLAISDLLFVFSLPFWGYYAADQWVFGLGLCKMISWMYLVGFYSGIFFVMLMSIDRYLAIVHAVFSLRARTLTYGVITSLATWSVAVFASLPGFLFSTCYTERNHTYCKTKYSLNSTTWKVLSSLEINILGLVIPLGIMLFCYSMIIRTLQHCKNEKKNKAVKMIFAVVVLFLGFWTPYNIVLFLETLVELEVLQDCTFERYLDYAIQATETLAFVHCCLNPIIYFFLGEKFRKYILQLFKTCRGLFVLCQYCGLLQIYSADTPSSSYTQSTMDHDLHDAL

[7] = molecular target: cynomolgus CCR8 (cynomolgus) (UniProt G7NYJ2); experiment: FACS on HEK293-cynomolgus CCR8 cells
Chain of cynomolgus CCR8 (cynomolgus) (G7NYJ2 entry or part of it): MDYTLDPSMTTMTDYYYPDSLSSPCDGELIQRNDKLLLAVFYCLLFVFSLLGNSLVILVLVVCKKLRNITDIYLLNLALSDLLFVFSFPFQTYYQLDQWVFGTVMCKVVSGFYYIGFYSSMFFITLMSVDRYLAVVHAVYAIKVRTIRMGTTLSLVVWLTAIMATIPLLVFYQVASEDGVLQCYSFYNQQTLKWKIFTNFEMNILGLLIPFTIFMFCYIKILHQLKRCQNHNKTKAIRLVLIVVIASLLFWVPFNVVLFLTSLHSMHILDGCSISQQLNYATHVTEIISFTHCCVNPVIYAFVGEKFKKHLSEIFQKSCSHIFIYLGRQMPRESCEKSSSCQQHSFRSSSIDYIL

[8] = molecular target: cynomolgus CCR8 (cynomolgus) (UniProt G7NYJ2); experiment: FACS on HEK293-cynomolgus CCR8 cells; remark: listed apart in the source
[9] = molecular target: cynomolgus CCR8 (cynomolgus) (UniProt G7NYJ2); experiment: FACS on HEK293-cynomolgus CCR8 cells; remark: listed apart in the source
[10] = molecular target: cynomolgus CCR8 (cynomolgus) (UniProt G7NYJ2); experiment: FACS on ExpiCHO-S-cynomolgus CCR8 cells
[11] = molecular target: human CCR8 (human) (UniProt P51685); experiment: FACS, competition with AF647-human CCL1 on CHO-K1-human CCR8 cells
[12] = molecular target: human CCR8 (human) (UniProt P51685); experiment: as above; remark: listed apart in the source
[13] = molecular target: human CCR8 (human) (UniProt P51685); experiment: as above; remark: listed apart in the source
[14] = molecular target: human CCR8 (human) (UniProt P51685); experiment: as above; remark: listed apart in the source
[15] = molecular target: human CCR8 (human) (UniProt P51685); experiment: flow cytometry on TALL-1 cells (endogenous CCR8)
[16] = molecular target: human CCR8 (human) (UniProt P51685); experiment: FACS on CHO-K1-human CCR8 cells
[17] = molecular target: cynomolgus CCR8 (cynomolgus) (UniProt G7NYJ2); experiment: FACS on HEK293-cynomolgus CCR8 cells; remark: listed apart in the source
[18] = molecular target: human CCR8 (human) (UniProt P51685); experiment: FACS on HuT78 cells (endogenous human CCR8)
[19] = molecular target: human CCR8 (human) (UniProt P51685); experiment: FACS on HuT78 cells (endogenous human CCR8); remark: listed apart in the source
[20] = molecular target: human CCR8 (human) (UniProt P51685); experiment: FACS, competition with CCL1 on CHO-K1-human CCR8 cells
[21] = molecular target: human CCR8 (human) (UniProt P51685); experiment: as above; remark: listed apart in the source
[22] = molecular target: cynomolgus CCR8 (cynomolgus) (UniProt G7NYJ2); experiment: FACS on HEK293-Cynomolgus CCR8 cells

Chain of human CCR8 (human) (P51685 whole entry): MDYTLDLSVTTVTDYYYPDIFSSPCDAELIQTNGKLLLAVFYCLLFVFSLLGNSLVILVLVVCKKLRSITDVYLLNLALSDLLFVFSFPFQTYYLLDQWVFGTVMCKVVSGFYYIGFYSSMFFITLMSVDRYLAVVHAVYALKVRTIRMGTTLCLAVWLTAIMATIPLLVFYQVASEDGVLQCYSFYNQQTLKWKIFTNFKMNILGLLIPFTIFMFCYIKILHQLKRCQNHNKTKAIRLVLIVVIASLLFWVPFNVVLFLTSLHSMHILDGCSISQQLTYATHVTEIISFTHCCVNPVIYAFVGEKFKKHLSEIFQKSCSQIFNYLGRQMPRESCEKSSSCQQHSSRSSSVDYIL

Substance	Max MFI [1] [MFI]	Max MFI [2] [MFI]	Max MFI [3] [MFI]	Max MFI [4] [MFI]	Max MFI [5] [MFI]	Max MFI [6] [MFI]	Max MFI [7] [MFI]	Max MFI [8] [MFI]	Max MFI [9] [MFI]	Max MFI [10] [MFI]	Max Inhibition (%) [12] [%]	Max Inhibition (%) [13] [%]	Max Inhibition (%) [14] [%]	further results
Mouse IgG2a (antibody)	11	18	261	49	267	6.6	47	40	158	5	-13.9	28.7	2.1	Max Inhibition (%) [11]: 12.3%
HuIgG1-G1m Isotype (antibody)														Maximum MFI [15]: 5.96 MFI
Human IgG1 (antibody)		180	222	167	20.3	7	14300	331	120	13	-13	27.4	-4.1	Max MFI [16]: 3860 MFI; Max MFI [17]: 5690 MFI; Max MFI [18]: 7820 MFI; Max MFI [19]: 16900 MFI; Max Inhibition (%) [20]: -4.58%; Max Inhibition (%) [21]: 17.8%
Mouse IgG2a isotype control (antibody)	349													Max MFI [22]: 396 MFI
